Data taken from the Human Domainome abundance scans (Beltran et al. 2025).
± gives the uncertainty stated by the source.

B1: Pituitary-specific positive transcription factor 1, residues 130 to 198; numbered along this chain, P28069 (parent)
chain: RELEKFANEFKVRRIKLGYTQTNVGEALAAVHGSEFSQTTICRFENLQLSFKNACKLKAILSKWLEEAE

Variants of: B1
Test: abundance fitness (aPCA) (normalised: wild type 0, dead -1); higher = more abundant; growth selection in yeast, the domain comes from the species named
Details: Homo sapiens

Variant | abundance fitness
K5L | -0.227 ± 0.039
K5F | -0.46 ± 0.14
E69P | -0.433 ± 0.23
E69S | -0.4 ± 0.14
E69R | -0.706 ± 0.13
E69D | -0.28 ± 0.16
E69Q | -0.635 ± 0.22
E69C | -0.537 ± 0.11
N8G | -0.336 ± 0.12
N8C | -0.496 ± 0.16
N8A | 0.133 ± 0.064
N8F | -0.262 ± 0.073
N8V | -0.224 ± 0.12
K56C | -0.505 ± 0.098
K56M | -0.268 ± 0.05
K56R | 0.005 ± 0.038
K56P | -0.626 ± 0.082
K56E | -0.132 ± 0.056
K56Q | -0.074 ± 0.067
K56H | -0.34 ± 0.095
S62E | 0.016 ± 0.087
S62H | -0.127 ± 0.12
S62F | -0.059 ± 0.056
S62P | -0.909 ± 0.27

Variant | abundance fitness
S62K | -0.3 ± 0.12
S62L | -0.144 ± 0.055
S62G | -0.239 ± 0.11
N53H | 0.233 ± 0.059
N53V | 0.122 ± 0.069
N53R | 0.206 ± 0.055
N53T | 0.131 ± 0.037
N53M | 0.058 ± 0.11
Q38T | 0.277 ± 0.29
E66M | -0.332 ± 0.096
E66V | -0.123 ± 0.054
E66T | -0.115 ± 0.093
E66N | -0.373 ± 0.14
A7Q | -0.944 ± 0.46
A7L | -0.975 ± 0.13
A7S | -0.425 ± 0.19
A7M | -0.551 ± 0.15
Q21W | -0.592 ± 0.13
Q21E | -0.549 ± 0.23
Q21K | -0.702 ± 0.11
Q21M | -0.394 ± 0.099
F36M | -0.31 ± 0.085
F36Q | -0.517 ± 0.097
F36T | -0.512 ± 0.13

Variant | abundance fitness
G25S | 0.198 ± 0.045
G25V | 0.085 ± 0.045
K52G | -0.149 ± 0.05
K52V | 0.073 ± 0.077
K52S | -0.002 ± 0.076
K52H | 0.018 ± 0.21
A59T | 0.042 ± 0.069
A59I | 0.049 ± 0.064
A59V | 0.116 ± 0.048
V12Q | 0.16 ± 0.23
V12I | -0.002 ± 0.11
V12P | -0.772 ± 0.48
V12S | 0.089 ± 0.076
V12C | -0.183 ± 0.11
V12A | 0.173 ± 0.06
V12E | 0.275 ± 0.063
A54Q | -0.473 ± 0.18
A54F | -0.131 ± 0.19
A54V | -0.756 ± 0.42
A54L | -0.033 ± 0.12
F51K | -0.11 ± 0.071
F51N | -0.342 ± 0.17
F51Y | 0.034 ± 0.06
F51T | -0.07 ± 0.14

Variant | abundance fitness
F51D | -0.001 ± 0.1
F51A | -0.174 ± 0.099
F51Q | -0.061 ± 0.1
I60W | -0.611 ± 0.14
I60E | -0.567 ± 0.21
I60A | -0.281 ± 0.073
I60D | -0.343 ± 0.11
I60H | -0.437 ± 0.17
E35G | -0.086 ± 0.043
E35P | -0.381 ± 0.17
E35A | -0.097 ± 0.065
E35I | -0.276 ± 0.07
E35D | -0.144 ± 0.085
E35K | -0.23 ± 0.15
L49H | -0.721 ± 0.18
L49I | -0.262 ± 0.064
L49V | -0.323 ± 0.055
L49F | -0.149 ± 0.1
L49Q | -0.749 ± 0.19
N23P | -0.992 ± 0.39
N23Y | 0.008 ± 0.1
N23H | 0 ± 0.077
F6Y | -0.837 ± 0.1
F6K | -0.756 ± 0.18

Variant | abundance fitness
F6W | -0.333 ± 0.052
F6P | -0.835 ± 0.19
F6D | -1.06 ± 0.22
F6H | -0.726 ± 0.12
V24N | -0.581 ± 0.22
V24L | -0.361 ± 0.074
V24C | -0.337 ± 0.18
V31T | -0.021 ± 0.068
V31G | -0.404 ± 0.1
V31C | -0.258 ± 0.097
V31S | -0.004 ± 0.04
V31L | -0.058 ± 0.039
V31P | -0.912 ± 0.19
V31Q | -0.033 ± 0.067
A29R | -0.127 ± 0.063
A29Q | -0.112 ± 0.075
A29Y | -0.609 ± 0.2
A29P | -0.89 ± 0.24
A29L | -0.829 ± 0.16
A29C | -0.361 ± 0.086
A29G | -0.416 ± 0.13
L3Y | -0.22 ± 0.13
L3R | -0.751 ± 0.24
L3V | -0.468 ± 0.082

Variant | abundance fitness
E67A | -0.214 ± 0.071
E67V | -0.39 ± 0.073
E67D | 0.002 ± 0.069
E67Q | -0.125 ± 0.11
E67R | -0.172 ± 0.058
E67F | -0.49 ± 0.14
E67H | -0.34 ± 0.23
E67P | -0.721 ± 0.26
A30Y | -0.633 ± 0.13
A30R | 0.042 ± 0.049
A30P | -0.468 ± 0.091
A30S | -0.138 ± 0.058
A30V | -0.444 ± 0.087
A30F | -0.726 ± 0.16
A30K | -0.008 ± 0.1
F44W | -0.909 ± 0.17
F44M | -0.89 ± 0.34
F44L | -0.76 ± 0.077
F44T | -1.06 ± 0.23
F44E | -0.72 ± 0.18
F44A | -0.958 ± 0.26
F44R | -0.871 ± 0.14
F44G | -1.03 ± 0.2
C42R | 0.142 ± 0.069

Variant | abundance fitness
C42W | -0.101 ± 0.059
C42V | -0.336 ± 0.054
C42K | 0.148 ± 0.14
C42G | -0.029 ± 0.064
C42T | -0.02 ± 0.068
C55T | -0.098 ± 0.13
C55E | -0.07 ± 0.067
C55V | 0.15 ± 0.039
C55L | 0.121 ± 0.055
C55A | -0.207 ± 0.1
C55M | 0.145 ± 0.13
C55K | -0.153 ± 0.1
L28E | -0.718 ± 0.21
L28R | -0.554 ± 0.068
L28N | -0.863 ± 0.26
L28D | -0.162 ± 0.11
L28G | -0.715 ± 0.14
L28Y | -0.711 ± 0.18
R43T | -0.825 ± 0.15
R43C | -0.559 ± 0.12
R43S | -0.416 ± 0.077
R43A | 0.12 ± 0.076
R43D | 0.112 ± 0.16
